Source: publication PMC3085511 (Nature, 2011)
Where two headings read alike, the source gives them in different places.

Assays:
[1] = biological target: T1, mono-ubiquitin (UniProt P0CG48 1-76); assay: ITC
[2] = biological target: T1, mono-ubiquitin; assay: ITC; remark: listed apart in the source

binding result [1]	binding result [2]	Binder
binds		ARGRWACQSCTFENEAAAVLCSICERPRLA (domain or fragment, human, UniProt Q96EP0 350-379, looked up) [HOIP NZF1 (aa350–379)]
	binds	SHARPIN (SHANK-associated RH domain-interacting protein) (natural protein, human, UniProt Q9H0F6 1-387, looked up) MAPPAGGAAAAASDLGSAAVLLAVHAAVRPLGAGPDAEAQLRRLQLSADPERPGRFRLELLGAGPGAVNLEWPLESVSYTIRGPTQHELQPPPGGPGTLSLHFLNPQEAQRWAVLVRGATVEGQNGSKSNSPPALGPEACPVSLPSPPEASTLKGPPPEADLPRSPGNLTEREELAGSLARAIAGGDEKGAAQVAAVLAQHRVALSVQLQEACFPPGPIRLQVTLEDAASAASAASSAHVALQVHPHCTVAALQEQVFSELGFPPAVQRWVIGRCLCVPERSLASYGVRQDGDPAFLYLLSAPREAPATGPSPQHPQKMDGELGRLFPPSLGLPPGPQPAASSLPSPLQPSWSCPSCTFINAPDRPGCEMCSTQRPCTWDPLAAAST
	binds	AASSLPSPLQPSWSCPSCTFINAPDRPGCEMCSTQRPCTWDPLAAAST (domain or fragment, human, UniProt Q9H0F6 340-387, looked up) [SHARPIN NZF (340–387)]
